Assay [1] concerns the target Purified MDM2 (1-125) protein (human MDM2 1-125 sequence comprising a modified TEV cleavage site, pNIC-GST fusion) (human) (UniProt Q00987). Kind of assay: competitive fluorescence anisotropy (FP) against FAM-labeled 12/1 peptide on MDM2 (1-125); apparent Kd.
Assay [2] deals with MDM2 (in HCT116 cells) (human) (UniProt Q00987). Nature of the assay: cell-based or functional assay.

Purified MDM2 (1-125) protein (human MDM2 1-125 sequence comprising a modified TEV cleavage site, pNIC-GST fusion) (human), sequence (Q00987 1-125 limits assumed): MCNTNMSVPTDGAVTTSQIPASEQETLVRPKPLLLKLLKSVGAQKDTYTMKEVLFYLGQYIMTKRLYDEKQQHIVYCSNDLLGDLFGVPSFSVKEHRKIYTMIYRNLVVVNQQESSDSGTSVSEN

With “Acetyl-^DPMI-δ-(6-10 olefin staple) (D-K9D-Q, D-R12D-S) (D-A)-(D-F)-(D-A)-(D-Ala)-(D-A)-(D-A) polypeptide tail)-NH2”, the Kd in assay [1] came to 30 nM.
For “Acetyl-^DPMI-δ-(6-10 olefin staple) (D-K9D-Q, D-R12D-S)-NH2 (peptide)”, in assay [1], the Kd is 258 nM.
With “Acetyl-^DPMI-δ-(6-10 olefin staple) (D-K9D-Q, D-R12D-S, 3x(D-A) polypeptide tail)-NH2”, in assay [1], the Kd was 3.1 nM.
For “Acetyl-^DPMI-δ-(6-10 olefin staple) (D-K9D-Q, D-R12D-S, 3x(D-Ala)-(D-Glu)-2x(D-Ala) polypeptide tail)-NH2”, the Kd in assay [1] amounted to 0.43 nM.
In assay [2], “^DPMI-δ-(5-12 olefin staple)-NH2 (peptide)” gave a p53 activity EC50 (µM) (0% FBS, 4 h) of 13.6 µM and a p53 activity EC50 (µM) (10% FBS, 16 h) of 30.8 µM. Also, the Kd in assay [1] worked out at 33.9 nM.
As for “^DPMI-δ-(6-10 olefin staple)-NH2 (peptide)”, in assay [1], the Kd worked out at 118 nM.
